# Measured values reported in US6710030B1, “Contortrostain (CN) and methods for its use in preventing metastasis and other conditions” (University of Southern California, priority 1993, dated 2004).
# “Also recorded” adds a separate entry of the source.
# B1: contortrostatin (protein)
# chain: DAPANPCCDAATCKLTTGSQCADGLCCDQCKFMKEGTVCRRARGDDLDDYCNGISAGCPRNPFHA
# How the values were obtained:
# [1] = test system: unactivated human platelets; assay: Scatchard analysis of CN binding to unactivated human platelets
# T24 cells [2] = assay: Phosphotyrosine immunoblot, T24 cells; format: cell-based, human
# Description: Cell culture, preparation and stimulation—T24 cells were maintained in RPMI 1640 medium containing 5% fetal bovine serum, and MDA-MB-435 and 293 cells were maintained in Dulbecco's modified Eagle's medium with 10% serum at 37° C. in 5% CO2. Cells were washed with phosphate-buffered saline (PBS) and starved in the appropriate serum-free medium for 6 h at 37° C. Cells were detached by brief treatment with 0.05% trypsin/0.02% EDTA in PBS and collected by centrifugation, resuspended in soybean trypsin inhibitor (1 mg/ml in serum-free medium), and washed in 2% bovine serum albumin/serum-free medium. Cells were maintained in suspension for 1 h in 2% bovine serum albumin/serum-free medium at 37° C. with end-over-end agitation. Quiescent cells (3×10^6/ml) were treated with disintegrins or other reagents while in suspension, or were allowed to adhere to Matrigel (Becton Dickinson, Bedford, Mass.) diluted 1:100 with serum-free medium during treatment.
# Lysate preparation and immunoprecipitation—Suspended and adherent cells were washed twice with cold PBS and lysed in cold lysis buffer (50 mM Tris, pH 8.0, 150 mM NaCl, 1% Nonidet P-40, 0.5% deoxycholate, 0.1% SDS, protease inhibitor cocktail, 1 mM sodium pyrophosphate, 1 mM sodium orthovanadate, 50 mM sodium fluoride). After 10-15 min incubation on ice, insoluble material was removed by centrifugation at 14,000 RPM in a microcentrifuge for 15 min. Supernatants were collected and total protein concentrations standardized by the BCA protein assay (Pierce, Rockford, Ill.). Immunoprecipitation was carried out by incubating whole cell lysates (200 μg total protein) with 1.25 μg anti-FAK or anti-CAS mAb 4-6 h at 4° C. followed by 20 μl protein G-agarose overnight at 4° C. Immunoprecipitates were washed 4 times in lysis buffer without inhibitors and dissociated by adding SDS-PAGE sample buffer and boiling 5 min. Whole cell lysates (30 μg total protein) or immunoprecipitates were resolved by 7.5% SDS-polyacrylamide gel electrophoresis and transferred to nitrocellulose membranes. […]
# platelets = assay: Platelet release reactions (granule contents); format: cell-based
# Description: Platelets comprise a plurality of different granules, including alpha granules and dense granules, whose contents are released when the platelets aggregate. […] Thus, normal platelet physiological processes are necessarily further perturbed with administration of applaggin.
# [3] = test system: human platelet rich plasma; conditions: cited from earlier work
# [4] = test system: adhesion formation during wound healing; assay: Rabbit model of adhesion formation (uterine horns); format: in vivo; conditions: Alzet pumps, 10 μl/hr (36 μg/ml)
# Description: In preliminary studies in a rabbit model of adhesion formation, abrasion and devascularization of the uterine horns of rabbits were employed to induce adhesion formation during wound healing in untreated animals [Rodgers, K. et al., Int. J. Fertil. 35:40 (1990)]. Alzet pumps were employed to continuously deliver CN at a rate of 10 μl/hr (36 μg/ml). […] Therefore, compositions and methods for preventing adhesion formation whereby an amount of CN effective to prevent adhesion formation is administered to a patient in need of such treatment are also contemplated as within the scope of the present invention.
# MDA-MB-435 cells = assay: Growth of MDA-MB-435 cells in vitro on Matrigel-coated plates; format: cell-based, human
# Description: MDA-MB-435 cells (0.3×10^6/ml) were added to each well of a 6-well cell culture plates coated with 1/100 dilution of Matrigel . Cells were then treated with CN at various concentration. Growth curves of MDA-MB-435 cells in vitro without CN (circles), and with CN at 100 nM (triangles), and 500 nM (diamonds) are illustrated. Six-well cell culture plates coated with Matrigel (1/100 dilute) were seeded with 3 ml of MDA-MB-435 cell suspension (0.3×10^6/ml). Cell density was determined every 24 hours.
# MDA-MB-435 tumor = assay: Orthotopic MDA-MB-435 breast cancer metastatic model in nude mice; format: in vivo
# Description: A spontaneous (orthotopic) metastatic model of nude mice has been established by implantation of MDA-MB-435 cells (5×10^5 in 0.1 ml) in the mammary fat pads (mfp). Palpable tumors appeared by the 10th day post-implantation. Daily injections of CN into the tumor masses of each of the groups arc carried out, started at the 14th day post-implantation. By the 8th week post-implantation, tumors were removed. The animals were allowed to survive for 2 more weeks without CN administration. The animals were then sacrificed and lung metastases were carefully examined. […] The volumes of tumor masses (mean±S.D.) of control (dark bars), low-dosage (0.5 μg/day, gray bars), and high-dosage (5 μ/day, light gray bars) CN-treated group are shown. The seven clusters of bars from left to right represent the data of pre-injection (PI, 14th day post-implantation) and the 1st through 6th week of injection. Student t-tests were employed to test the significance of differences. *and** indicate P<0.05 and p<0.01, respectively.
# T24 cells [5] = assay: Cellular binding to laminin and Matrigel; format: cell-based, human
# [6] = test system: chick chorioallantoic membrane; assay: bFGF and VEGF induced angiogenesis in chick chorioallantoic membrane model; conditions: in vivo
# Description: Significance: The function of αvβ5 has been indicated by many studies. […] Although αvβ5 participates in the initiation of cell adhesion to vitronectin, unlike αvβ3 which mediates cell migration constitutively, αvβ5 mediates migration only when activated by growth factors, such as insulin-like growth factor-1 (IGF-1), epidermal growth factor (EGF), and transforming growth factor-α (TGF-α).
molecule,measurement,setting,value
B1,number of binding sites (Bm),[1],"100,000"
same,tyrosine phosphorylation in cells adherent to Matrigel,T24 cells [2],significant additional increase
same,tyrosine phosphorylation at high concentration,T24 cells [2]; 1000 nM,reduced levels of tyrosine phosphorylation
same,tyrosine phosphorylation of 120-140 kDa proteins,T24 cells [2]; suspended cells,also observed
same,platelet release reactions,platelets,does not inhibit platelet release reactions
same,50% inhibition (IC50) of human platelet aggregation in platelet rich plasma,[3],0.8 µg/mL
same,concentration that completely inhibits ADP-induced platelet aggregation,[3]; preincubation for 1 minute,approximately 100 nM
same,adhesion formation,[4],decreased adhesion formation
same,cytotoxicity during in vitro culture,MDA-MB-435 cells,no direct cytotoxicity
same,proliferation of MDA-MB-435 cells,MDA-MB-435 cells; CN at 100 nM and 500 nM,proliferate equally well as control cells
same,# of nodules in lung (median),MDA-MB-435 tumor; 5 μg/day,4.5
same,Mean size of relapse tumor,MDA-MB-435 tumor; 5 μg/day,48.7 ± 10.5 mm^3
same,In situ relapse,"MDA-MB-435 tumor; 5 μg/day, animals with/total",2/6
same,"Metastasis incidence, Other Organs","MDA-MB-435 tumor; 5 μg/day, chest wall, mediastinum, diaphragm, pleurae",2/6
same,growth of the tumor (tumor mass volume),MDA-MB-435 tumor; daily local injection into tumor,substantially inhibited the growth rate of the tumor; also recorded: significantly smaller
same,inhibition of metastasis,MDA-MB-435 tumor; high dose CN group versus control,> 90%
same,mean weight of tumors,"MDA-MB-435 tumor; high-dose CN (5 μg/day), P<0.05",significantly lower than control group
same,bleeding at the injection sites,"MDA-MB-435 tumor; mouse, in vivo",Some bleeding at the injection sites
same,spontaneous hemorrhage,"MDA-MB-435 tumor; mouse, in vivo",no spontaneous hemorrhage
same,toxicity in chronic experiment,"MDA-MB-435 tumor; mouse, in vivo",not toxic
same,cellular binding to Matrigel,T24 cells [5],does not inhibit cellular binding to Matrigel
same,cellular binding to laminin,T24 cells [5],does not significantly inhibit cellular binding to laminin
same,angiogenesis induced by bFGF and VEGF,[6],inhibits angiogenesis
